What was measured:
[1] = target: T1, FYESK (5-mer on peptide array)
T1 chain: FYESK

[2] = target: T2, RQRQR (5-mer on peptide array)
T2 chain: RQRQR

[3] = target: T3, ARSKL (5-mer on peptide array)
T3 chain: ARSKL

[4] = target: T4, EWVAQ (5-mer on peptide array)
T4 chain: EWVAQ

[5] = target: T5, EYALQ (5-mer on peptide array)
T5 chain: EYALQ

[6] = target: T6, VRYRQ (5-mer on peptide array)
T6 chain: VRYRQ

[7] = target: T7, NYRFK (5-mer on peptide array)
T7 chain: NYRFK

[8] = target: T8, DWALQ (5-mer on peptide array)
T8 chain: DWALQ

[9] = target: T9, FRQRG (5-mer on peptide array)
T9 chain: FRQRG

[10] = target: T10, Z-[GGGDYALQGGGG]
T10 chain: GGGDYALQGGGG

[11] = target: T11, DWVAQ (5-mer on peptide array)
T11 chain: DWVAQ

[12] = target: T12, YRQTR (5-mer on peptide array)
T12 chain: YRQTR

[13] = target: T13, YRQSR (5-mer on peptide array)
T13 chain: YRQSR

[14] = target: T14, YQKWK (5-mer on peptide array)
T14 chain: YQKWK

[15] = target: T15, Z-[GGGRQRQRGGGG]
T15 chain: GGGRQRQRGGGG

[16] = target: T16, AYRTK (5-mer on peptide array)
T16 chain: AYRTK

[17] = target: T17, YKYAK (5-mer on peptide array)
T17 chain: YKYAK

[18] = target: T18, DYWLQ (5-mer on peptide array)
T18 chain: DYWLQ

[19] = target: T19, RYRSK (5-mer on peptide array)
T19 chain: RYRSK

[20] = target: T20, YRQRA (5-mer on peptide array)
T20 chain: YRQRA

[21] = target: T21, Z-[GGGYRYRQGGGG]
T21 chain: GGGYRYRQGGGG

[22] = target: T22, RFSQR (5-mer on peptide array)
T22 chain: RFSQR

[23] = target: T23, RYSYK (5-mer on peptide array)
T23 chain: RYSYK

[24] = target: T24, YRYAK (5-mer on peptide array)
T24 chain: YRYAK

[25] = target: T25, QRQRQ (5-mer on peptide array)
T25 chain: QRQRQ

[26] = target: T26, YKYRQ (5-mer on peptide array)
T26 chain: YKYRQ

[27] = target: T27, RYSQR (5-mer on peptide array)
T27 chain: RYSQR

[28] = target: T28, VRQRQ (5-mer on peptide array)
T28 chain: VRQRQ

[29] = target: T29, YRYRQ (5-mer on peptide array)
T29 chain: YRYRQ

[30] = target: T30, PYKYK (5-mer on peptide array)
T30 chain: PYKYK

[31] = target: T31, Z-[GGGRYSKYGGGG]
T31 chain: GGGRYSKYGGGG

B1: Kutzneria albida microbial transglutaminase, activated enzyme (KalbTGt3) (protein)
chain: APLAPPLAEDRSYRTWRVEDYVEAWERYHGREMTEDERENLARGCIGVTVVNLNREDLSNPPLNLSFGSLRTAEAVQAALNKIVDTHPSPAQYEAAVAKDPILKRLKNVVKALPSWIDSAKLKASIFSKRFYSWQNPDWSEERAHTTYRPDRETDQVDMSTYRYRARPGYVNFDYGWFDQDTNTWWHANHEEPRMVVYQSTLRHYSRPLQDFDEQVFTVAFAKKDGGGSGHHHHHHHH
[1]
  5-mer peptide array, incorporation of biotinylated glutamine donor Z-APRYRQRAAGGG-PEG-biotin: the top 17 lysine-donor substrates identified on the 5-mer peptide array with KalbTG
[2]
  5-mer peptide array, incorporation of biotinylated amine donor: the top 22 glutamine-donor substrates identified on the 5-mer peptide array with KalbTG
  Array signal (log2): 8.84 log2
[3]
  Array signal (log2): 12 log2
[4]
  5-mer peptide array signal with KalbTG: exhibited relatively lower signal on the KalbTG array
[5]
  5-mer peptide array signal with KalbTG: exhibited relatively lower signal on the KalbTG array
[6]
  5-mer peptide array, incorporation of biotinylated amine donor: the top 22 glutamine-donor substrates identified on the 5-mer peptide array with KalbTG
[7]
  5-mer peptide array, incorporation of biotinylated glutamine donor Z-APRYRQRAAGGG-PEG-biotin: the top 17 lysine-donor substrates identified on the 5-mer peptide array with KalbTG
[8]
  5-mer peptide array signal with KalbTG: exhibited relatively lower signal on the KalbTG array
[9]
  5-mer peptide array, incorporation of biotinylated amine donor: the top 22 glutamine-donor substrates identified on the 5-mer peptide array with KalbTG
  Array signal (log2): 8.82 log2
[10]
  GLDH-coupled activity assay: KalbTG exhibited no activity with preferred S. mobaraensis MTG substrates DYALQ (SEQ ID NO: 22) and MLAQG (SEQ ID NO: 13)
  Reaction rate in solution (pmol/s), GLDH-coupled assay: -0.05 pmol/s
[11]
  5-mer peptide array signal with KalbTG: exhibited relatively lower signal on the KalbTG array
[12]
  5-mer peptide array, incorporation of biotinylated amine donor: the top 22 glutamine-donor substrates identified on the 5-mer peptide array with KalbTG
[13]
  5-mer peptide array, incorporation of biotinylated amine donor: the top 22 glutamine-donor substrates identified on the 5-mer peptide array with KalbTG
[14]
  5-mer peptide array, incorporation of biotinylated glutamine donor Z-APRYRQRAAGGG-PEG-biotin: the top 17 lysine-donor substrates identified on the 5-mer peptide array with KalbTG
[15]
  Reaction rate in solution (pmol/s), GLDH-coupled assay: 2.06 pmol/s
[16]
  Array signal (log2): 12.6 log2
[17]
  5-mer peptide array, incorporation of biotinylated glutamine donor Z-APRYRQRAAGGG-PEG-biotin: the top 17 lysine-donor substrates identified on the 5-mer peptide array with KalbTG
[18]
  5-mer peptide array signal with KalbTG: exhibited relatively lower signal on the KalbTG array
[19]
  Array signal (log2): 12.4 log2
[20]
  5-mer peptide array, incorporation of biotinylated amine donor: the top 22 glutamine-donor substrates identified on the 5-mer peptide array with KalbTG
[21]
  KM: 2150 µM
  Reaction rate in solution (pmol/s), GLDH-coupled assay: 3.52 pmol/s
  Vmax: 73.2 pmol/s
  kcat: 1.92 s⁻¹
  kcat/KM: 890 M⁻¹ s⁻¹
[22]
  5-mer peptide array, incorporation of biotinylated amine donor: the top 22 glutamine-donor substrates identified on the 5-mer peptide array with KalbTG
[23]
  5-mer peptide array, incorporation of biotinylated glutamine donor Z-APRYRQRAAGGG-PEG-biotin: the top 17 lysine-donor substrates identified on the 5-mer peptide array with KalbTG
[24]
  5-mer peptide array, incorporation of biotinylated glutamine donor Z-APRYRQRAAGGG-PEG-biotin: the top 17 lysine-donor substrates identified on the 5-mer peptide array with KalbTG
[25]
  5-mer peptide array, incorporation of biotinylated amine donor: the top 22 glutamine-donor substrates identified on the 5-mer peptide array with KalbTG
  Array signal (log2): 8.77 log2
[26]
  5-mer peptide array, incorporation of biotinylated amine donor: the top 22 glutamine-donor substrates identified on the 5-mer peptide array with KalbTG
  Array signal (log2): 8.7 log2
[27]
  5-mer peptide array, incorporation of biotinylated amine donor: the top 22 glutamine-donor substrates identified on the 5-mer peptide array with KalbTG
  Array signal (log2): 8.93 log2
[28]
  5-mer peptide array, incorporation of biotinylated amine donor: the top 22 glutamine-donor substrates identified on the 5-mer peptide array with KalbTG
[29]
  5-mer peptide array, incorporation of biotinylated amine donor: the top 22 glutamine-donor substrates identified on the 5-mer peptide array with KalbTG
  Array signal (log2): 8.99 log2
[30]
  5-mer peptide array, incorporation of biotinylated glutamine donor Z-APRYRQRAAGGG-PEG-biotin: the top 17 lysine-donor substrates identified on the 5-mer peptide array with KalbTG
[31]
  Reaction Rate in Solution (pmol s^-1), GLDH-coupled assay with 200 µM glutamine donor: 3.89 pmol/s

Source: patent publication US20200249231
